For assay [1], the target named is MAdCAM-IgG1 Fc fusion protein (human). Description: cell-based or functional assay.
For assay [2], the target named is T1, recombinant mouse MAdCAM (mouse, UniProt Q61826 22-365).
T1 sequence (looked up): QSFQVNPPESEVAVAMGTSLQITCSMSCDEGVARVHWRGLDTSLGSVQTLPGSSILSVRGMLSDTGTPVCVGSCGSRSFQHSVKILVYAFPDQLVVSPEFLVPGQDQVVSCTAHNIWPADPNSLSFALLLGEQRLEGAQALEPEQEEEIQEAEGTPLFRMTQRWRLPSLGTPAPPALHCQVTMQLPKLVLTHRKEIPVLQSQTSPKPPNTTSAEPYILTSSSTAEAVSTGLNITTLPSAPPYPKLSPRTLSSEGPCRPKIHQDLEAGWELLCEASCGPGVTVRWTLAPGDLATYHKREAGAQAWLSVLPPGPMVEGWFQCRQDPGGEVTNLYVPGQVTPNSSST
Nature of the assay: ELISA. In general terms: In an ELISA, binding on a coated surface is turned into a signal by an enzyme label.

Assay [3] addresses T2, chimeric cynomolgus/human MAdCAM (cynomolgus; human, UniProt Q13477 226-382, limits assumed).
T2 sequence: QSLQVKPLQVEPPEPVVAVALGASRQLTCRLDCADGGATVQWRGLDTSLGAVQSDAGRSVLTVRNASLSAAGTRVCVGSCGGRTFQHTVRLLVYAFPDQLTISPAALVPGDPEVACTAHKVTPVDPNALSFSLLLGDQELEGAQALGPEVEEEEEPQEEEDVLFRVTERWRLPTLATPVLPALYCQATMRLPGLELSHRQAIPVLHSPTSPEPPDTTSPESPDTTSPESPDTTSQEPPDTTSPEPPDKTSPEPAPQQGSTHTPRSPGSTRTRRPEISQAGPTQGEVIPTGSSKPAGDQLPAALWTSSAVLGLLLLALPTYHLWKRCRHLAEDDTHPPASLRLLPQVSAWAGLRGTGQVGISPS
Description: cell-based or functional assay.

Assay [4] addresses MAdCAM-IgG1 Fc fusion protein (human). Nature of the assay: cell-based or functional assay. The source holds these as a separate data set.
In assay [5] the target is T3, human MAdCAM (full length) (human, UniProt Q13477 19-382).
T3 sequence (looked up): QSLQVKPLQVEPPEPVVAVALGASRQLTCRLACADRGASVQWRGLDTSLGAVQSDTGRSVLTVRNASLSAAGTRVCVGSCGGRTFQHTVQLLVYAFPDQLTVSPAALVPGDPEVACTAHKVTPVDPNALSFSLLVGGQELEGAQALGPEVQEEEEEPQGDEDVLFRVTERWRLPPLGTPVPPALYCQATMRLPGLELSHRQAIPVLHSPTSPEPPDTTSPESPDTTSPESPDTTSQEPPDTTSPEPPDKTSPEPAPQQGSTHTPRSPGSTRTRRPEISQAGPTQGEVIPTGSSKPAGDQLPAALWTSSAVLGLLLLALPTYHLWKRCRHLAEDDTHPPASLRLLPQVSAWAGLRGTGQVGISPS
Description: cell-based or functional assay.

Assay [6] addresses T4, MAdCAM-IgG1 Fc fusion protein (human).
T4 construct: Made in CHO-DHFR cells; also called MAdCAM-IgFc
Description: SPR BIAcore protocol 1: mAb captured, MAdCAM-IgG1 Fc injected. The procedure: To perform kinetic analyses, a high density mouse anti-human (IgG₂ and IgG₄) antibody surface over a CMS BIAcore sensor chip was prepared using routine amine coupling. Hybridoma supernatants were diluted 10, 5, 2-fold in HBS-P (10 mM HEPES pH 7.4, 150 mM NaCl, 0.005% Surfactant P20) running buffer containing 100 μg/mL BSA and 10 mg/mL carboxymethyldextran or used neat. Each mAb was captured onto a separate surface using a […] contact time and a 5 mM wash for stabilization of the mAb baseline. MAdCAM-IgG₁ Fc (141 nM) fusion protein was then injected at over all surfaces for one minute, followed by a 3 mM dissociation. The data were normalized for the amount of antibody captured on each surface and evaluated with global fit Langmuir 1:1, using baseline drift models available on the BIAevaluation software provided by BIAcore.
Background: Surface plasmon resonance follows binding to a sensor surface in real time, without labels.

Assay [7] deals with T4, MAdCAM-IgG1 Fc fusion protein. Description: SPR BIAcore protocol 2: mAb amine-coupled, MAdCAM-IgG1 Fc injected. As for the experimental part:
Affinity-purified mAb were immobilized onto the dextran layer of a CMS biosensor chip using amine coupling. […] Samples of MAdCAM-IgG₁ Fc fusion protein in running buffer were prepared at concentrations ranging from 0.2-55 nM (a 0 nM solution comprising running buffer alone was included as a zero reference). Samples were randomized and injected in duplicate for 3 mM each across 4 flow cells using HBS-EP (10 mM HEPES pH 7.4, 150 mM NaCl, 3 mM EDTA, 0.005% Surfactant P20) as running buffer. A flow rate of 100 μL/min was used to minimize mass transport limitations. Dissociation of MAdCAM-IgG₁ Fc fusion protein was monitored for 180 mins, the surface regenerated by a 6 sec injection of 25 mM H₃PO₄ (50 μL/min), or 10 mM (6.22.2), 20 mM (6.67.1, 6.73.2, 6.77.1) to 25 mM (6.34.2) and 45 mM NaOH (6.14.2) and the data analysed using the BIAevaluation (v3.1) software package.

B1: anti-MAdCAM monoclonal antibody 6.67.1 (antibody, human IgG4, kappa, V domains shown)
VH: QVQLQESGPGLVKPSETLSLTCTVSGDSISSNYWSWIRQPAGKGLEWIGRIYTSGGTNSNPSLRGRVTILADTSKNQFSLKLSSVTAADTAVYYCARDRITIIRGLIPSFFDYWGQGTLVTVSS
VL: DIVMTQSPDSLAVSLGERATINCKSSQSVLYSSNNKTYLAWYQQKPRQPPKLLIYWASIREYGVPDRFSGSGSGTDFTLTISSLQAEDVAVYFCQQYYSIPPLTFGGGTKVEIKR
notes: human IgG4 kappa from hybridoma 6.67.1
For B1, the “MAdCAM IgG1 Fc fusion Assay Mean IC50 (Parent)” value in assay [1] was determined as 0.013 µg/mL. For the same molecule, the binding result in assay [2] is listed as “no binding”. In addition, the “Functional IC50, cynomolgus/human MAdCAM-CHO/JY adhesion assay” value in assay [3] worked out at 0.75 µg/mL. In assay [4], the “Mean IC50, JY cell adhesion to MAdCAM IgG1 Fc fusion” value (“Mean IC50 … to MAdCAM IgG1 Fc fusion” for short) amounted to 0.013 µg/mL. In addition, the “Mean IC50, JY cell adhesion, MAdCAM FlpIn CHO Assay” value (from here on “Mean IC50 … MAdCAM FlpIn CHO Assay”) in assay [5] was 0.298 µg/mL. In assay [6], the Kd was not above 0.017 nM, the koff is not above 1e-05 s⁻¹ and the association rate constant (kon) was 590000 M⁻¹ s⁻¹. In assay [7], this molecule showed a Kd of less than 0.02 nM, an off-rate constant (koff) of less than 5e-06 s⁻¹ and a kon of 240000 M⁻¹ s⁻¹.

B2: anti-MAdCAM monoclonal antibody 9.8.2 (antibody, human IgG4, kappa, V domains shown)
VH: QVQLVESGGGVVQPGRSLRLSCAASGFTFSSYGMHWVRQAPGKGLEWVAVIWYDGSNEYYADSVKGRFTISRDNSKNTLYLQMNSLRAEDTAVYYCARGAYHFAYWGQGTLVTVSS
VL: DIQMTQSPSSLSASVGDRVTITCQASQDISNYLNWYQQKPGKAPKLLIYDASNLETGVPSRFSGSGSGTDFTFTISSLQPEDIATYSCQHSDNLSITFGQGTRLEIKR
notes: human IgG4 kappa from hybridoma 9.8.2
Regarding B2, in assay [2], the binding result is “no binding”. Further, in assay [3], the “Functional IC50, cynomolgus/human MAdCAM-CHO/JY adhesion assay” value is 0.83 µg/mL. Also, the “Mean IC50 … to MAdCAM IgG1 Fc fusion” value in assay [4] was 0.02 µg/mL. For the same molecule, the “Mean IC50 … MAdCAM FlpIn CHO Assay” value in assay [5] worked out at 0.44 µg/mL. In assay [6], the Kd is 0.1 nM, the koff was 0.00023 s⁻¹ and the kon was determined as 2.3e+06 M⁻¹ s⁻¹. Besides, in assay [7], the Kd was found to be 0.0325 nM, the koff turned out to be 1.4e-05 s⁻¹ and the kon came out at 440000 M⁻¹ s⁻¹.

B3: anti-MAdCAM monoclonal antibody 7.26.4 (antibody, human IgG2, kappa, V domains shown)
VH: QVQLVQSGAEVKKPGASVKVSCEASGYTFTSYGIDWVRQAPGQGLEWMGWISVYSGNTNYAQKLQGRVTMSTDTSTSTAYMELRSLRSDDTAVYYCAREGSSSSGDYYYGMDVWGQGTTVTVSS
VL: DIVMTQTPLSLSVTPGQPASISCKSNQSLLYSDGKTYLFWYLQKPGQPPQLLIYEVSNRFSGVPDRFSGSGSGTDFTLKISRVEAEDVGVYYCMQSIQLPWTFGQGTKVEIKR
notes: human IgG2 kappa from hybridoma 7.26.4
For the molecule B3, in assay [1], the “MAdCAM IgG1 Fc fusion Assay Mean IC50 (Parent)” value turned out to be 0.021 µg/mL. For the same molecule, the binding result in assay [2] is “no binding”. The “Functional IC50, cynomolgus/human MAdCAM-CHO/JY adhesion assay” value in assay [3] was determined as 0.96 µg/mL. Moreover, the “Mean IC50 … to MAdCAM IgG1 Fc fusion” value in assay [4] came out at 0.021 µg/mL. Besides, the “Mean IC50 … MAdCAM FlpIn CHO Assay” value in assay [5] worked out at 0.574 µg/mL. In assay [6], this molecule came in with a Kd of 0.271 nM, an off-rate (koff) of 0.00026 s⁻¹ and a kon of 960000 M⁻¹ s⁻¹. In assay [7], this molecule had a Kd of 0.08 nM, a koff of 1.2e-05 s⁻¹ and a kon of 150000 M⁻¹ s⁻¹.

B4: anti-MAdCAM monoclonal antibody 7.20.5 (antibody, human IgG2, kappa, V domains shown)
VH: QVQLQESGPGLVKPSETLSLTCTVSGSSISSYHWNWIRQPAGKGLEWIGRIYTSGSTNYNPSLKSRVTMSLDTSKNQFSLKLSSVTAADTAVYYCAREGVRYYYASGSYYYGLDVWGQGTTVTVSS
VL: not shown
notes: human IgG2 kappa from hybridoma 7.20.5
With B4, the binding result in assay [2] was “no binding”. In assay [3], the “Functional IC50, cynomolgus/human MAdCAM-CHO/JY adhesion assay” value was 0.62 µg/mL. Moreover, the “Mean IC50 … to MAdCAM IgG1 Fc fusion” value in assay [4] turned out to be 0.025 µg/mL. The “Mean IC50 … MAdCAM FlpIn CHO Assay” value in assay [5] worked out at 0.387 µg/mL. In addition, in assay [6], binding was characterised by a dissociation constant (Kd) of 0.0422 nM, the koff is 1.9e-05 s⁻¹ and the kon is 450000 M⁻¹ s⁻¹. In addition, in assay [7], the Kd was 0.075 nM, the koff was 1.2e-05 s⁻¹ and the kon was found to be 160000 M⁻¹ s⁻¹.

B5: anti-MAdCAM monoclonal antibody 6.22.2 (antibody, human IgG4, kappa, V domains shown)
VH: QVQLVESGGGVVQPGRSLRLSCAASGHTFSSDGMHWVRQAPGKGLEWVAIIWYDGSNKYYADSVKGRFTISRDNSKNTLYLQMNSLRAEDTAVYYCARDPGYYYGMDVWGQGTTVTVSS
VL: EIVLTQSPDFQSVTPKEKVTITCRASQRIGSSLHWYQQKPDQSPKLLIKYASQSFSGVPSRFSGSGSGTNFTLTINGLEAEDAATYYCHQSGRLPLTFGGGTKVEIKR
notes: human IgG4 kappa from hybridoma 6.22.2
On to B5, for which the “MAdCAM IgG1 Fc fusion Assay Mean IC50 (Parent)” value in assay [1] was determined as 0.018 µg/mL. Further, the binding result in assay [2] is listed as “no binding”. For the same molecule, the “Functional IC50, cynomolgus/human MAdCAM-CHO/JY adhesion assay” value in assay [3] was determined as 0.83 µg/mL. Besides, the “Mean IC50 … to MAdCAM IgG1 Fc fusion” value in assay [4] is 0.018 µg/mL. For the same molecule, the “Mean IC50 … MAdCAM FlpIn CHO Assay” value in assay [5] came to 0.573 µg/mL. Also, in assay [6], the Kd came to 0.0093 nM, the koff is 1.4e-05 s⁻¹ and the kon came to 1.5e+06 M⁻¹ s⁻¹. In assay [7], this molecule gave a Kd of 0.0038 nM, a koff of 8.7e-07 s⁻¹ and a kon of 230000 M⁻¹ s⁻¹.

B6: anti-MAdCAM monoclonal antibody 6.34.2 (antibody, human IgG4, kappa, V domains shown)
VH: QVQLVESGGGVVQPGRSLRLSCAASGFTFSSYGMHWVRQAPGKGLEWVAVISNDGNNKYYADSVKGRFTISRDNSKNTLYLQMNSLSAEDTAVYYCARDSTAITYYYYGMDVWGQGTTVTVSS
VL: DIQMTQSPSSLSASVGDRVTITCRASQNISSYLNWFQQKPGKAPKLLIYAASGLKRGVPSRFSGSGSGTDFTLTIRTLQPDDFATYSCHQSYSLPFTFGPGTKVDIKR
notes: human IgG4 kappa from hybridoma 6.34.2
With B6, the “MAdCAM IgG1 Fc fusion Assay Mean IC50 (Parent)” value in assay [1] stood at 0.013 µg/mL. Moreover, the binding result in assay [2] is recorded as “no binding”. Moreover, in assay [3], the “Functional IC50, cynomolgus/human MAdCAM-CHO/JY adhesion assay” value was 0.47 µg/mL. In addition, the “Mean IC50 … to MAdCAM IgG1 Fc fusion” value in assay [4] came out at 0.013 µg/mL. In assay [5], the “Mean IC50 … MAdCAM FlpIn CHO Assay” value turned out to be 0.285 µg/mL. In assay [6], this molecule registered a Kd of 0.0158 nM, a koff of 1.9e-05 s⁻¹ and a kon of 1.2e+06 M⁻¹ s⁻¹. Further, in assay [7], the Kd is less than 0.015 nM, the koff was less than 5e-06 s⁻¹ and the on-rate constant (kon) worked out at 330000 M⁻¹ s⁻¹.

For orientation: Kd means the concentration at which binding is half-saturated. Low values mean higher affinity, high ones lower affinity. A word on the koff: it is the rate constant with which the complex falls apart. Higher therefore signals fast dissociation. As a reminder, the kon is the second-order rate constant of association. The low end stands for slow association, the high end for fast association.

The values above are taken from patent publication US20190300605A1 (Pfizer, published 2019).
